Experimental data: patent publication US11266616B2, “Compositions and methods for inhibiting kinase activity” (BRANDEIS UNIVERSITY, priority 2016, dated 2022)
Where a chain is given by its changes, count along the chain named.

Key:
Aurora A kinase [1] = target: T1, Aurora A kinase (Homo sapiens, UniProt O14965, T288V); test: In vitro kinase assay (HPLC-based / ATP/NADH-coupled) of peptide substrate phosphorylation; format: biochemical; conditions: dephosphorylated Aurora A (T288V mutant), AP peptide, FIG. 20
T1 construct: Codon-optimized Aurora A^122-403 in pET28a and untagged λPP in T7-7 plasmid were co-transformed in BL21(DE3) cells; made in house; host or cells: E. coli BL21(DE3)
T1 sequence (O14965 122-403 T288V): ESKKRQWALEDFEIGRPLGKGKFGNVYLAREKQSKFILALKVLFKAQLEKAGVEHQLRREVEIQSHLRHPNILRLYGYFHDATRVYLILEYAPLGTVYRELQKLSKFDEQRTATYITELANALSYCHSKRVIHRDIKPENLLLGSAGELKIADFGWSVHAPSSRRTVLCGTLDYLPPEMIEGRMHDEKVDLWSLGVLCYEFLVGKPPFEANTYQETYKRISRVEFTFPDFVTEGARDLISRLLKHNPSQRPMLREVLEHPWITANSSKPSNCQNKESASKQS
Experimental: (§1) Aurora A, either phosphorylated/dephosphorylated wild type or mutant protein, was mixed with either AP ([…]) (SEQ ID NO: 5), Kemptide (LRRASLG) (SEQ ID NO: 6), or Lats2 ([…]) (SEQ ID NO: 7), in the absence or presence of 50 μM TPX2 in kinase buffer (20 mM TrisHCl, 200 mM NaCl, 3% [vol/vol] glycerol, 20 mM MgCl2, 1 mM TCEP, pH 7.50). These substrates comprise the consensus sequence for Aurora A ([R/K/N]—R—X—[S/T]-B where B is any hydrophobic residue with the exception of Pro) (Ferrari et al., 2005, Biochem. J., 390(Pt 1):293-302; Ohashi et al., 2006, Oncogene, 25:7691-7702; Sardon et al., 2010, EMBO Reports, 11:977-984). Peptides were ordered through Genscript. For HPLC-based activity assays the following protocol was used. The reaction was initiated with the addition of 5 mM ATP. Then 5 μl time points were collected, resuspended in 10 μl 6% (vol/vol) trichloroacetic acid (in water) to quench the reaction, and neutralized with 50 μl 100 mM KH2PO4, pH 8.0 to provide the appropriate pH for nucleotide separation. The mixture was then passed through a 0.22 μm SpinX column to remove any protein precipitation. Reverse phase-high performance liquid chromatography (RP-HPLC) and an ACE 5 C18-AR, 100 Å pore size column, were used to separate nucleotides as well as peptides. For nucleotide runs, 2 μl of the aforementioned mixture was sufficient for analysis, whereas for the peptide runs the optimal injection volume was 20 μl. Nucleotide runs were routinely performed to ensure no unproductive hydrolysis was occurring during the experiment. An isocratic elution run in 100 mM KH2PO4, pH 6.0 was performed for this purpose. For the peptide runs, a gradient of 0-30% of elution buffer lasting 10 min at 0.4 mL/min was sufficient to separate phosphorylated from non-phosphorylated species. The running buffer was 0.1% TFA (vol/vol) in water, while the elution buffer was 100% acetonitrile. Lastly, to ensure full saturation of Aurora A by TPX2 and test these proteins were well behaved, a dose-dependence curve of the effect of TPX2 on Aurora A was obtained.
(§2) For ATP/NADH-coupled assay-based reaction, the following protocol was used. Phosphorylation of different concentrations of Lats2 peptide was monitored using the ATP/NADH coupled assay in a 96-well plate format. Reactions were carried in the presence of 1 μM dephosphorylated or 0.05 μM phosphorylated Aurora and 5 mM ATP in assay buffer (20 mM TrisHCl, 200 mM NaCl, 20 mM MgCl2, 10% (v/v) glycerol, 1 mM TCEP, pH 7.50) at 25° C.

Aurora A kinase [2] = target: T2, Aurora A kinase (Homo sapiens, UniProt O14965); test: as above; format: biochemical; conditions: phosphorylated Aurora A, AP peptide, FIG. 20
T2 construct: Codon-optimized Aurora A^122-403 in pET28a and untagged λPP in T7-7 plasmid were co-transformed in BL21(DE3) cells; inferred from pET28a and the NiNTA column) (cleaved yes); made in house; host or cells: E. coli BL21(DE3)
T2 sequence (O14965 122-403): T1 sequence (O14965 122-403 T288V) with V167T
Experimental: as §1, §2

For “TPX2: naturally occurring allosteric activator of Aurora A kinase, binds the PIF pocket (MSQVKSSYSYDAPSDFINFSSLDDEGDTQNIDSWFEEKANLENKL) [reference compound]”, the “effect of TPX2 binding on kinase activity” value (Aurora A kinase [1]) was “greatly increased” and the “effect of TPX2 binding on kinase activity” value (Aurora A kinase [2]) was “only slightly increased”.
